Among the data in article doi:10.1101/071829 are stoichiometry N and stoichiometry N (CD3657 per CD3654 (6:6)) values, retold here.

Where two headings read alike, the source gives them in different places.

In general, stoichiometry N refers to a count of units in the complex or per binding partner.

Common to all, as to assay: SEC
The target of experiment [1] is C. difficile replicative helicase CD3657, purified non-tagged (Clostridium difficile 630).
Experiment [2] addresses C. difficile putative helicase loader ATPase CD3654, purified non-tagged (Clostridium difficile 630).
Experiment [3] addresses C. difficile replicative helicase CD3657, purified non-tagged (Clostridium difficile 630). This is another data set of the same source.
Experiment [4] shares this target. The source holds these as a separate data set.

As to “C. difficile replicative helicase CD3657, purified non-tagged (enzyme)”, the stoichiometry N in experiment [1], in experiment [3] and in experiment [4] was 6 throughout. Also, the stoichiometry N (CD3657 per CD3654 (6:6)) in experiment [2] came to 1.
